In PMC11417369, “DNA sequence and chromatin differentiate sequence-specific transcription factor binding in the human malaria parasite Plasmodium falciparum”:

T1: AP2-LT D1 (Plasmodium falciparum, UniProt Q8IAM1 2520-2577)
T1 sequence: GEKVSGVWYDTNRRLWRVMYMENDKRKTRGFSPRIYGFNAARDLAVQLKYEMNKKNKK

B1: CACACA_negctrl_site1666 (dsDNA)
DNA 1: AAAAAAAAAAAAAAATTAAAGTAATGGAAAAAAAAA
DNA 2: TTTTTTTTTCCATTACTTTAATTTTTTTTTTTTTTT
B2: CACACA_negctrl_site1656 (dsDNA)
DNA 1: TTTTGATCTGAAGGAACCTAAAAAGGGAAGAGAAAA
DNA 2: TTTTCTCTTCCCTTTTTAGGTTCCTTCAGATCAAAA
B3: CACACA_negctrl_site153 (dsDNA)
DNA 1: CTTGGTAGTTTTTTCTTATAATCTAATTATTAATAA
DNA 2: TTATTAATAATTAGATTATAAGAAAAAACTACCAAG
B4: CACACA_negctrl_site949 (dsDNA)
DNA 1: TATATATGGGTACTAATTCCTTTAATTTCTTTAATT
DNA 2: AATTAAAGAAATTAAAGGAATTAGTACCCATATATA
B5: CACACA_negctrl_site1412 (dsDNA)
DNA 1: TATATTTGGTTTCATTCATTTTTATAGAAATCTCAA
DNA 2: TTGAGATTTCTATAAAAATGAATGAAACCAAATATA
B6: CACACA_negctrl_site1075 (dsDNA)
DNA 1: AATAAAAAAAAAAAAAAAAAAAAAAAGACACTAAAA
DNA 2: TTTTAGTGTCTTTTTTTTTTTTTTTTTTTTTTTATT
B7: CACACA_negctrl_site1062 (dsDNA)
DNA 1: TTATATGCATCCAAAAAGGAATGTTTTTAGAGAATC
DNA 2: GATTCTCTAAAAACATTCCTTTTTGGATGCATATAA
B8: CACACA_negctrl_site97 (dsDNA)
DNA 1: AATAAAGGAAATAAATAATTTATTTTGTAAAATATG
DNA 2: CATATTTTACAAAATAAATTATTTATTTCCTTTATT
B9: CACACA_negctrl_site43 (dsDNA)
DNA 1: TTCTTAATTCATACCATCAAAACATTTATTCATATC
DNA 2: GATATGAATAAATGTTTTGATGGTATGAATTAAGAA
B10: CACACA_negctrl_site1682 (dsDNA)
DNA 1: TGTTATATCAATAATATATAATAATACCCTTCTTTT
DNA 2: AAAAGAAGGGTATTATTATATATTATTGATATAACA
B11: CACACA_negctrl_site81 (dsDNA)
DNA 1: TTCTGTATAATATAAAAACAAAAATTAAATTAAAAC
DNA 2: GTTTTAATTTAATTTTTGTTTTTATATTATACAGAA
B12: CACACA_negctrl_site1330 (dsDNA)
DNA 1: TAATAAATTCAAAACATAAAAAGGAAAAAAAAAAAA
DNA 2: TTTTTTTTTTTTCCTTTTTATGTTTTGAATTTATTA
B13: CACACA_negctrl_site377 (dsDNA)
DNA 1: GTATAACAACTGATAAAAGAAAAAAAATTTATTATT
DNA 2: AATAATAAATTTTTTTTCTTTTATCAGTTGTTATAC
B14: CACACA_negctrl_site982 (dsDNA)
DNA 1: ATTTTTTTTTTTTTTTTTTTTTTTTTTGAATTCACA
DNA 2: TGTGAATTCAAAAAAAAAAAAAAAAAAAAAAAAAAT
B15: CACACA_negctrl_site1157 (dsDNA)
DNA 1: TTTTTGTATTCTACCTTAACAATCTTAAAGATTTTT
DNA 2: AAAAATCTTTAAGATTGTTAAGGTAGAATACAAAAA
B16: CACACA_negctrl_site1605 (dsDNA)
DNA 1: GTTTTTTTATAAAATTTTTATATAATTCTTTTATAA
DNA 2: TTATAAAAGAATTATATAAAAATTTTATAAAAAAAC
B17: CACACA_negctrl_site908 (dsDNA)
DNA 1: TTATGGATGGACAATAATAAAATTTTTACTTTTATT
DNA 2: AATAAAAGTAAAAATTTTATTATTGTCCATCCATAA
B18: CACACA_negctrl_site1633 (dsDNA)
DNA 1: AAAAATTAAAATATAACTAATTAATTTGTATTCATT
DNA 2: AATGAATACAAATTAATTAGTTATATTTTAATTTTT
B19: CACACA_negctrl_site1708 (dsDNA)
DNA 1: AAAACTTTTTTAACAGAAAAATAGGGATACAATATA
DNA 2: TATATTGTATCCCTATTTTTCTGTTAAAAAAGTTTT
B20: CACACA_negctrl_site1356 (dsDNA)
DNA 1: TGTTTAACACATGTTTCAAACAAAAAAAAAAAGACA
DNA 2: TGTCTTTTTTTTTTTGTTTGAAACATGTGTTAAACA
B21: CACACA_negctrl_site687 (dsDNA)
DNA 1: GTTAAACATCTTCTGTGATATGTTAGAATATTATTT
DNA 2: AAATAATATTCTAACATATCACAGAAGATGTTTAAC
B22: CACACA_negctrl_site766 (dsDNA)
DNA 1: TTCTTTCTGTTTTATTTATAATAATTTATGATAAAA
DNA 2: TTTTATCATAAATTATTATAAATAAAACAGAAAGAA
B23: CACACA_negctrl_site1031 (dsDNA)
DNA 1: ATTATTTGAACAACAAAAAAAAAGAAAAGAAAAGAA
DNA 2: TTCTTTTCTTTTCTTTTTTTTTGTTGTTCAAATAAT
B24: CACACA_negctrl_site847 (dsDNA)
DNA 1: TTTTAAAATAAAAAAATAAAAAAAGGGGAAAAAAAA
DNA 2: TTTTTTTTCCCCTTTTTTTATTTTTTTATTTTAAAA
B25: CACACA_negctrl_site1634 (dsDNA)
DNA 1: TTGGTAAATATATTTTGAATATAAGAAATATAGACG
DNA 2: CGTCTATATTTCTTATATTCAAAATATATTTACCAA
B26: CACACA_negctrl_site996 (dsDNA)
DNA 1: GAAAAAAAAAAAAAAAAAAAAAGGAAAAAAGTGAAA
DNA 2: TTTCACTTTTTTCCTTTTTTTTTTTTTTTTTTTTTC
B27: CACACA_negctrl_site122 (dsDNA)
DNA 1: TCTGGATTGGATTACAAGAAAATAAAATATAAAATA
DNA 2: TATTTTATATTTTATTTTCTTGTAATCCAATCCAGA
B28: CACACA_negctrl_site338 (dsDNA)
DNA 1: TCGTCTCAATAATTATAATAAAAAAATTCCTAAGTC
DNA 2: GACTTAGGAATTTTTTTATTATAATTATTGAGACGA
B29: CACACA_negctrl_site1698 (dsDNA)
DNA 1: TTATAATAAAAAAATTCCTAAGTCCGTATATATTAT
DNA 2: ATAATATATACGGACTTAGGAATTTTTTTATTATAA
B30: CACACA_negctrl_site1518 (dsDNA)
DNA 1: AAGGGAAAATAATAAAAGAAAAAGAAAAAAAAAAAA
DNA 2: TTTTTTTTTTTTCTTTTTCTTTTATTATTTTCCCTT
B31: CACACA_negctrl_site1417 (dsDNA)
DNA 1: AAAAATATTATGATGTTTATTAGAAAGGAAAAAACT
DNA 2: AGTTTTTTCCTTTCTAATAAACATCATAATATTTTT
B32: CACACA_negctrl_site1516 (dsDNA)
DNA 1: TAACCAAAAAAAAATATTTAAAATAAATATATATAT
DNA 2: ATATATATATTTATTTTAAATATTTTTTTTTGGTTA
B33: CACACA_negctrl_site1475 (dsDNA)
DNA 1: AATGATTTTCAATCGAAATGAAACTTAGAAGATATA
DNA 2: TATATCTTCTAAGTTTCATTTCGATTGAAAATCATT
B34: CACACA_negctrl_site667 (dsDNA)
DNA 1: TTATATATAAACATAAAAAGAAATATATTATGTATA
DNA 2: TATACATAATATATTTCTTTTTATGTTTATATATAA
B35: CACACA_negctrl_site332 (dsDNA)
DNA 1: TCTTTTAAAAATATAAAAAGGAATATATAAAAATGT
DNA 2: ACATTTTTATATATTCCTTTTTATATTTTTAAAAGA
B36: CACACA_negctrl_site1493 (dsDNA)
DNA 1: TGTTCTTATTTTATAAGCATATAATTAATCATAATG
DNA 2: CATTATGATTAATTATATGCTTATAAAATAAGAACA
B37: CACACA_negctrl_site94 (dsDNA)
DNA 1: TTTTTTTTTTTTTTTTTTTTTTTCTACCTATTTATT
DNA 2: AATAAATAGGTAGAAAAAAAAAAAAAAAAAAAAAAA
B38: CACACA_negctrl_site648 (dsDNA)
DNA 1: AAAAAGAAAAAATATATTCGTCTATTATAAACAATA
DNA 2: TATTGTTTATAATAGACGAATATATTTTTTCTTTTT
B39: CACACA_negctrl_site1820 (dsDNA)
DNA 1: AGAATTGTTGTTAAAGAATTCTTTTTTATCCTTCCC
DNA 2: GGGAAGGATAAAAAAGAATTCTTTAACAACAATTCT
B40: CACACA_negctrl_site1268 (dsDNA)
DNA 1: ATATTTTTATGATGTATCCAAGAAATGGAACTATAT
DNA 2: ATATAGTTCCATTTCTTGGATACATCATAAAAATAT
B41: CACACA_negctrl_site1333 (dsDNA)
DNA 1: AATTAAGTTAAACATTAAAAAAAACAAAAAATTAAA
DNA 2: TTTAATTTTTTGTTTTTTTTAATGTTTAACTTAATT
B42: CACACA_negctrl_site500 (dsDNA)
DNA 1: TAATTAAAAAATAAAAAAAAAAAAAATTAAAACAAA
DNA 2: TTTGTTTTAATTTTTTTTTTTTTTATTTTTTAATTA

What follows are binders tested against T1, AP2-LT D1 (assay: gcPBM; about 25 ug protein; PBS, 1% milk, 0.2 mg/ml BSA, salmon testes DNA, 0.03% Triton X-100). Conditions: tags: N-terminal GST (pGEX-4T-1), kept; label: surface-attached array probe.

| Binder | binding signal |
| --- | --- |
| B1 | 8.75 ln median PBM intensity, better of two orientations |
| B2 | 8.82 ln median PBM intensity, better of two orientations |
| B3 | 8.73 ln median PBM intensity, better of two orientations |
| B4 | 8.85 ln median PBM intensity, better of two orientations |
| B5 | 8.84 ln median PBM intensity, better of two orientations |
| B6 | 8.75 ln median PBM intensity, better of two orientations |
| B7 | 8.79 ln median PBM intensity, better of two orientations |
| B8 | 8.84 ln median PBM intensity, better of two orientations |
| B9 | 8.88 ln median PBM intensity, better of two orientations |
| B10 | 8.8 ln median PBM intensity, better of two orientations |
| B11 | 8.74 ln median PBM intensity, better of two orientations |
| B12 | 8.86 ln median PBM intensity, better of two orientations |
| B13 | 8.85 ln median PBM intensity, better of two orientations |
| B14 | 8.8 ln median PBM intensity, better of two orientations |
| B15 | 8.8 ln median PBM intensity, better of two orientations |
| B16 | 8.77 ln median PBM intensity, better of two orientations |
| B17 | 8.82 ln median PBM intensity, better of two orientations |
| B18 | 8.76 ln median PBM intensity, better of two orientations |
| B19 | 8.86 ln median PBM intensity, better of two orientations |
| B20 | 8.88 ln median PBM intensity, better of two orientations |
| B21 | 8.83 ln median PBM intensity, better of two orientations |

| Binder | binding signal |
| --- | --- |
| B22 | 8.74 ln median PBM intensity, better of two orientations |
| B23 | 8.83 ln median PBM intensity, better of two orientations |
| B24 | 8.83 ln median PBM intensity, better of two orientations |
| B25 | 8.87 ln median PBM intensity, better of two orientations |
| B26 | 8.82 ln median PBM intensity, better of two orientations |
| B27 | 8.76 ln median PBM intensity, better of two orientations |
| B28 | 8.78 ln median PBM intensity, better of two orientations |
| B29 | 8.75 ln median PBM intensity, better of two orientations |
| B30 | 8.87 ln median PBM intensity, better of two orientations |
| B31 | 8.85 ln median PBM intensity, better of two orientations |
| B32 | 8.88 ln median PBM intensity, better of two orientations |
| B33 | 8.78 ln median PBM intensity, better of two orientations |
| B34 | 8.75 ln median PBM intensity, better of two orientations |
| B35 | 8.73 ln median PBM intensity, better of two orientations |
| B36 | 8.77 ln median PBM intensity, better of two orientations |
| B37 | 8.86 ln median PBM intensity, better of two orientations |
| B38 | 8.72 ln median PBM intensity, better of two orientations |
| B39 | 8.88 ln median PBM intensity, better of two orientations |
| B40 | 8.85 ln median PBM intensity, better of two orientations |
| B41 | 8.76 ln median PBM intensity, better of two orientations |
| B42 | 8.72 ln median PBM intensity, better of two orientations |
